Experiments:
TRUC mice = assay: TRUC mouse chronic colitis model, in vivo treatments; settings: TRUC Il22−/− mice
Procedure: In vivo treatments: Neutralizing anti-IL-22 mAb (clone IL22-01) and recombinant IL-22 (rIL-22) were developed and provided by Pfizer. […] of IL22-01 (per mouse) were administered i.p. every 3 to 4 days. […] of rIL-22 (per mouse) were administered i.p. at days 0, 4, 8 and 12, while mice were culled at day 14. Anti-CXCR2 (clone 242216, R&D Systems) was administered i.p. at a dose of […] per mouse at days 0, 3, 7, 10 and 14, while mice were culled at day 15.
Isolation of colonic LP leukocytes (cLPMCs): Mice were euthanized by either cervical dislocation or by a rising concentration of carbon dioxide gas, and then dissected in a laminar flow cabinet under aseptic conditions. Colons were opened longitudinally, cleaned thoroughly with ice-cold PBS and cut into 1-2 mm pieces and washed with 10 ml 5 mM EDTA, 1 mM Hepes in HBSS (Gibco; Gaithersburg, Md.) in a shaking water bath (300 rpm) at 37° C. for 20 min. Tissue was then vortexed vigorously for 10 seconds and passed through a […] cell strainer and collected in Ctubes (Miltenyi; Bergisch Gladbach, Germany) in complete RPMI (Gibco) containing 10% fetal calf serum, 0.25 mg/ml Collagenase D (Roche; Basel, Switzerland), 1.5 mg/ml Dispase II (Roche) and […] DNase (Roche) and put in a shaking water bath (300 rpm) at 37° C. for 40 minutes. Before and after the 40 minute incubation C-tubes were vigorously shaken for 30 seconds. Solutions were then passed through […] cell strainers and washed with ice-cold PBS. […] Cells were resuspended in 1 ml PBS, counted, and immediately used for further experiments.
Gene expression analysis: Whole tissue colonic fragments or sorted cells were lysed in 1 ml TRIsure (Bioline) and stored at −80° C. pending further processing. […] Concentration of RNA in each sample was measured using NanoDrop. […] Quantitative PCR was performed using QuantiTect primers (Qiagen) and Quantitect SybrGreen MasterMix (Qiagen) on a LightCycler 480 (Roche). Samples were analyzed in triplicates and relative expression of mRNAs was determined after normalization against the housekeeping gene Beta-2-Microglobulin (B2M). […]

human colonoids = assay: Cytokine treatment of human colonoids, RNA-seq; assay type: cell-based
Procedure: All patients provided informed consent (NRES/IRAS id:15/LO/1998). Subsequent establishment of human colonoids was performed as previously described by Sato et al (48). The crypts were cultured in growth medium containing advanced Dulbecco's modified Eagle's medium/F12, penicillin/streptomycin (100 units/mL), 10 mM HEPES, 2 mM Glutamax, supplements N2 (1×) and B27 (1×), 50 ng/mL mouse epidermal growth factor (all from Life Technologies; Carlsbad, Calif.), 1 mM N-acetylcysteine (Sigma-Aldrich; St. Louis, Mo.), 50% v/v Wnt3a conditioned medium, 10% v/v R-spondin-1 conditioned medium, 100 ng/mL murine recombinant noggin protein (Peprotech; Rocky Hill, N.J.), 10 nM gastrin (Sigma-Aldrich), 500 nM A83-01 (Bio-techne; Minneapolis, Minn.), 10 μM SB202190 (Sigma-Aldrich) and 10 mM Nicotinamide (Sigma-Aldrich). 10 μM Y-27632 (Sigma-Aldrich) was added to the culture medium for the initial 3 days. Medium was changed every 2 days. […] During the last 24 hours in differentiation medium, human colonoids were treated with human recombinant IL22 (10 ng/mL), IL17A (50 ng/mL), TNFα (10 ng/mL), IFNγ (20 ng/mL), IL13 (10 ng/mL) and IL22 (10 ng/mL)/IL17A (50 ng/mL) combination.
RNA extraction: Colonoids and LPMC were treated in a similar fashion. Cells were lysed and RNA was extracted using the RNAeasy kit (Qiagen; Hilden, Germany). This step was optimized balancing the effectiveness of elimination of DNA quantified (Qubit dsDNA HS assay kit) versus the loss of quantity of RNA (Qubit RNA BR assay kit). Optimal DNAse I concentration was determined to be ×5 the standard concentration. 500 ng of cDNA was then created using Revertaid cDNA synthesis kit (ThermoFisher) and diluted to a concentration of 6.25 ng/μl. Harvested colonoids were put in Qiazol and then RNA was extracted with the RNAeasy kit (Qiagen) as per manufacturer's guidelines. cDNA was created using the Revertaid cDNA synthesis kit (ThermoFisher).
Library preparation and sequencing: A total amount of 3 μg RNA per sample was used as input material for the RNA sample preparations. Sequencing libraries were generated using NEBNextR Ultra™ RNA Library Prep Kit for IlluminaR (NEB, Ipswich, Mass.) following manufacturer's recommendations and index codes were added to attribute sequences to each sample. Briefly, mRNA was purified from total RNA using poly-T oligo-attached magnetic beads. Fragmentation was carried out using divalent cations under elevated temperature in NEBNext First Strand Synthesis Reaction Buffer (5×). First strand cDNA was synthesized using random hexamer primer and M-MuLV Reverse Transcriptase (RNase H-). Second strand cDNA synthesis was subsequently performed using DNA Polymerase I and RNase H. Remaining overhangs were converted into blunt ends via exonuclease/polymerase activities. After adenylation of 3′ ends of DNA fragments, NEBNext Adaptor with hairpin loop structure were ligated to prepare for hybridization. In order to select cDNA fragments of preferentially 150˜200 bp in length, the library fragments were purified with AMPure XP system (Beckman Coulter, Brea, Calif.). Then 3 μl USER Enzyme (NEB) was used with size-selected, adaptor-ligated cDNA at 37° C. for 15 minutes followed by 5 minutes at 95° C. before PCR. Then PCR was performed with Phusion High-Fidelity DNA polymerase, Universal PCR primers and Index (X) Primer. At last, PCR products were purified (AMPure XP system) and library quality was assessed on the Agilent Bioanalyzer 2100 system. The clustering of the index-coded samples was performed on a cBot Cluster Generation System using HiSeq PE Cluster Kit cBot-HS (Illumina; San Diego, Calif.) according to the manufacturer's instructions. After cluster generation, the paired-end libraries were sequenced on an Illumina HiSeq platform. […]

mouse colonic organoids = assay: IL22 treatment of mouse colonic organoids, chemokine expression; assay type: cell-based
Procedure: Mouse colonoids were cultured in the same medium as above but without gastrin SB202190, Nicotinamide, A83-01 and with the addition of 3 μM CHIR99021 (Cambridge Biosciences; Cambridge, United Kingdom). To differentiate them, Wnt3a was withdrawn for 3 days. During the last 24 hours in differentiation medium, mouse colonoids were treated with mouse recombinant IL22 (10 ng/mL) and IL17A (50 ng/mL).
Next, whether IL22 mediated regulation of neutrophil-active chemokine expression was functionally important in colitis was investigated. First, it was evaluated whether IL22 mediated regulation of human colonic epithelial function was conserved across species. […] In the CC family of chemokines, induction of Ccl7 and weaker induction of Ccl2 by IL22, with little or no impact on other CC family members, was observed. These findings were validated using real time PCR, which confirmed time and dose dependent induction of CXC-family chemokine transcripts. As observed in human colonoids, IL22 induced expression of Cxcl1 and Cxcl5, and was synergistically augmented by IL17A. These observations were confirmed at the protein level by measuring chemokine production in supernatants of murine colonic organoids cultured with recombinant mouse cytokines.

Molecule | Cxcl1 and Cxcl5 expression in the colon (TRUC mice) | disease activity (colitis) (TRUC mice) | neutrophil recruitment in the colon (TRUC mice) | downregulated transcripts (human colonoids; FDR<0.01) | upregulated transcripts (human colonoids; FDR<0.01) | differentially expressed transcripts (human colonoids; IL22 10 ng/mL, 24 hours, FDR<0.01) | regulation of chemokine expression (human colonoids; human colonoids, 24 hours) | transcripts uniquely regulated by IL22 (human colonoids; of the 1251 IL22-regulated transcripts) | regulation of chemokine expression (mouse colonic organoids)
rIL22: recombinant IL-22 developed and provided by Pfizer, given i.p. to mice | reinstated | restored colitis | restored excessive neutrophil recruitment | – | – | – | – | – | –
IL22: human recombinant IL22 (10 ng/mL) on human colonoids; mouse recombinant IL22 on mouse colonoids (protein, UniProt Q9GZX6 34-179, looked up) Interleukin-22: APISSHCRLDKSNFQQPYITNRTFMLAKEASLADNNTDVRLIGEKLFHGVSMSERCYLMKQVLNFTLEEVLFPQSDRFQPYMQEVVPFLARLSNRLSTCHIEGDDLHIQRNVQKLKDTVKKLGESGEIKAIGELDLLFMSLRNACI | – | – | – | 672 | 579 | 1251 transcripts | preferentially upregulated the neutrophil-active CXC family chemokines CXCL1, CXCL2, CXCL3, CXCL4, CXCL5, CXCL6 and CXCL8 | 322 | selectively induced expression of the neutrophil-active chemokines Cxcl1, Cxcl3 and Cxcl5
